Consider 1 substance from publication PMC2752815.

The test deals with mouse βB1-crystallin (mouse) (UniProt Q9WVJ5). Description: AUC.

As usually defined, the Kd is the constant that tells how readily two partners part at equilibrium. The stoichiometry N is the number of molecules, sites or subunits per partner or assembly. “mouse βB1-crystallin (from UniProt Q9WVJ5 1-250) (natural protein)” registered a Kd of 1.55 µM and a stoichiometry N of 2.
